Measured values reported in the supplement of paper PMC10724198.
± gives the standard deviation of the averaged measurements.

Tested on: Saccharomyces cerevisiae
Experiment: protein stability index of tFT-peptide fusion (C-terminal peptide) (PSI (0-1 scale)); higher = more stable (slower turnover)
Conditions: genetic background: wild type; temperature: 30 C
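Also: PSI is a weighted mean of sequencing reads over stability bins, variants kept only with over 10 reads, mCherry proximal and sfGFP distal, peptide attached via GGGS linker.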

Row | Sequence | protein stability index
1 | NSGSQSQDKQER | 0.658 ± 0.013
2 | NSPKTKKTNFKE | 0.665 ± 0.017
3 | NSRCSIQGAPLL | 0.726 ± 0.041
4 | NSSPRFPTPDNP | 0.6618 ± 0.00081
5 | NSVLRESSGLQL | 0.689 ± 0.044
6 | NSVWPGYPCTHP | 0.639 ± 0.03
7 | NTGEHVVPCKGT | 0.659 ± 0.0067
8 | NTGGVTRVIGCV | 0.704 ± 0.029
9 | NTGNGYDEKTME | 0.7622 ± 0.0014
10 | NTHPPPLPTTKH | 0.7393 ± 0.007
11 | NTNEKKRQRKKK | 0.6389 ± 0.0037
12 | NTSKEDENKARI | 0.707 ± 0.019
13 | NVIGSGLFVGWD | 0.795 ± 0.087
14 | NVLIISEQNHEP | 0.748 ± 0.047
15 | NVYRYSWYCSEF | 0.728 ± 0.088
16 | NWLYPYSLRRRG | 0.663 ± 0.13
17 | PAAPPLGFTRTD | 0.7 ± 0.0095
18 | PAELGAGYVMGG | 0.699 ± 0.022
19 | PAGSRGRHSRER | 0.712 ± 0.061
20 | PAGVPPAVCRDL | 0.609 ± 0.0092
21 | PAHSLPPPPPPP | 0.702 ± 0.041
22 | PALPHQPLPRPQ | 0.797 ± 0.023
23 | PALPPLPPPPPA | 0.71 ± 0.016
24 | PALPPPVLLRLP | 0.557 ± 0.062
25 | PALPTPILSSPP | 0.709 ± 0.012
26 | PAPLPFPPPSLP | 0.701 ± 0.032

Row | Sequence | protein stability index
27 | PAPLPPPAPSST | 0.69 ± 0.02
28 | PAPLRSPLVLPS | 0.721 ± 0.039
29 | PAPPPPPPGTAA | 0.641 ± 0.061
30 | PAPPPQSPAPYR | 0.704 ± 0.049
31 | PAPPRSLPPSSP | 0.6536 ± 0.0058
32 | PARPPPPRPPPP | 0.712 ± 0.03
33 | PASLSPAVPESS | 0.719 ± 0.044
34 | PASPCTPLPFSP | 0.686 ± 0.04
35 | PASPTLRPYWDP | 0.645 ± 0.068
36 | PASSAPDSSTAH | 0.7406 ± 0.0052
37 | PAVIVAPYSQGE | 0.701 ± 0.025
38 | PAVSLPPPAPAS | 0.721 ± 0.051
39 | PAYACLCGFGIA | 0.62754 ± 0.00056
40 | PCGLRLAFRLSL | 0.619 ± 0.038
41 | PCHPGASLRRRL | 0.861 ± 0.067
42 | PCPHPLRPALIL | 0.704 ± 0.014
43 | PCPLPVPCCLRP | 0.636 ± 0.016
44 | PCPRIPSSRRLA | 0.574 ± 0.044
45 | PCRANRRLVTSP | 0.628 ± 0.056
46 | PCVISRPPRLFP | 0.752 ± 0.06
47 | PDGGPGLLRFVL | 0.64 ± 0.015
48 | PDLEMQMTRTRG | 0.70081 ± 0.00044
49 | PDLLHLPAHRHA | 0.6722 ± 0.0055
50 | PDLPHYHPPPPL | 0.727 ± 0.011
51 | PDRPVISLLLPS | 0.646 ± 0.079
52 | PEGCQDGASPAE | 0.759 ± 0.021

Row | Sequence | protein stability index
53 | PEGLKKKKEKRI | 0.706 ± 0.049
54 | PELLGVARDGFR | 0.65 ± 0.0097
55 | PESTPRVHSNDY | 0.691 ± 0.027
56 | PFFSFLYPRFYF | 0.682 ± 0.0096
57 | PFFVRNTFTCSL | 0.735 ± 0.11
58 | PFLRPPSPPSSP | 0.66 ± 0.013
59 | PFPFSLPSPPLP | 0.551 ± 0.14
60 | PFPLPPLHSSHR | 0.734 ± 0.03
61 | PFPPRPPSDRIR | 0.659 ± 0.088
62 | PFPPTPVRRVPL | 0.715 ± 0.025
63 | PFPRGCCRLLSP | 0.707 ± 0.012
64 | PFRPPPRFPPPV | 0.815 ± 0.042
65 | PFSAPRRLPRTV | 0.697 ± 0.0089
66 | PFSGLPVRCELC | 0.672 ± 0.048
67 | PFSLPAFLLPTL | 0.712 ± 0.053
68 | PFSLPPPRPPRP | 0.684 ± 0.045
69 | PFSNFFFRLSFS | 0.665 ± 0.028
70 | PFSPHPGPPPPP | 0.7659 ± 0.002
71 | PFSTWLSSPSLP | 0.774 ± 0.07
72 | PFVGSSPFPLCL | 0.645 ± 0.042
73 | PFVPPPHRDDSP | 0.746 ± 0.082
74 | PGATSAIPPPFT | 0.738 ± 0.03
75 | PGGLSCPSPPTI | 0.676 ± 0.057
76 | PGLPLPPFPFFS | 0.762 ± 0.047
77 | PGNFLSVSMSIC | 0.649 ± 0.051
78 | PGPLVFPLPLAC | 0.578 ± 0.036

Row | Sequence | protein stability index
79 | PGPSPSPPLPRF | 0.748 ± 0.014
80 | PGPSPVLPPPPP | 0.633 ± 0.038
81 | PGRFVVGAGRED | 0.686 ± 0.024
82 | PGSTCWLFEFLS | 0.711 ± 0.07
83 | PGTATRAPQLIP | 0.727 ± 0.033
84 | PHAPHPPALTPP | 0.623 ± 0.072
85 | PHAPSHLPSSLP | 0.712 ± 0.025
86 | PHDPHNTATNQG | 0.721 ± 0.016
87 | PHDRSPPHGPKL | 0.742 ± 0.1
88 | PHLDSPGPLAII | 0.682 ± 0.023
89 | PHLPPSLFPSPP | 0.659 ± 0.073
90 | PHLRTRRPPLLH | 0.694 ± 0.01
91 | PHLTTPATPVLL | 0.716 ± 0.023
92 | PHPPHPPPPPPS | 0.689 ± 0.036
93 | PHPPPSPGPSPP | 0.707 ± 0.11
94 | PHPPRPPRAPPP | 0.634 ± 0.024
95 | PHPPRPSTPPPT | 0.637 ± 0.059
96 | PHPRSVSPPPPS | 0.624 ± 0.075
97 | PHPSAAPPPNPP | 0.759 ± 0.062
98 | PHPSLPGPFPHP | 0.7049 ± 0.0045
99 | PHPWTSPPAPPP | 0.698 ± 0.022
100 | PHRLLTQITTGT | 0.746 ± 0.12
101 | PIAASAPPLCPR | 0.692 ± 0.014
102 | PIALPSPSSPIF | 0.669 ± 0.015
103 | PIFQGTCPSTFV | 0.675 ± 0.02
104 | PIFVCPFPGSLV | 0.683 ± 0.065

Row | Sequence | protein stability index
105 | PIGLCLYNSPRF | 0.662 ± 0.035
106 | PILPPLVPSSRL | 0.769 ± 0.07
107 | PIMESARGFLCV | 0.658 ± 0.052
108 | PINIERNKRIKR | 0.733 ± 0.021
109 | PIPAPFFLAPPL | 0.731 ± 0.06
110 | PIPPPPPLRPSS | 0.69 ± 0.011
111 | PIPTQYPPPKAP | 0.675 ± 0.069
112 | PKKDNIQLQKPA | 0.694 ± 0.028
113 | PKPPPSSGRCPA | 0.633 ± 0.011
114 | PKRHLTFLPRGV | 0.662 ± 0.036
115 | PKWSVTPVAANL | 0.695 ± 0.048
116 | PLALPLPRLVLP | 0.643 ± 0.026
117 | PLCLCCPIGIIS | 0.516 ± 0.008
118 | PLFAPLCLNSNR | 0.666 ± 0.016
119 | PLFASLHPSGPL | 0.699 ± 0.032
120 | PLGDLGPRLRKP | 0.669 ± 0.039
121 | PLGPSTQHPLSI | 0.687 ± 0.025
122 | PLHMWFSLLKPS | 0.716 ± 0.074
123 | PLHNPPTRRTTP | 0.67 ± 0.056
124 | PLHPQPAATPRS | 0.713 ± 0.023
125 | PLHPSRPPPSSP | 0.708 ± 0.033
126 | PLIYFLASNSRF | 0.713 ± 0.069
127 | PLLDEQCLGIDS | 0.658 ± 0.015
128 | PLLPFRYTRSGT | 0.68 ± 0.07
129 | PLLPLAASPPPP | 0.683 ± 0.051
130 | PLLPPLPPPLPP | 0.692 ± 0.1

Row | Sequence | protein stability index
131 | PLLPSPAPLHPP | 0.583 ± 0.044
132 | PLLRPRLRPFPR | 0.704 ± 0.049
133 | PLNQSYFVFSGN | 0.724 ± 0.019
134 | PLPIHSHPPPVP | 0.615 ± 0.0068
135 | PLPIPHASPTLA | 0.641 ± 0.025
136 | PLPIPSPLRSSF | 0.689 ± 0.053
137 | PLPLPPSVTSLL | 0.729 ± 0.044
138 | PLPPILPAPPPT | 0.704 ± 0.028
139 | PLPPLLPPSPPP | 0.767 ± 0.0085
140 | PLPPLPPPPPAA | 0.682 ± 0.038
141 | PLPPLPPPTAPP | 0.693 ± 0.029
142 | PLPPPPLLALCS | 0.531 ± 0.02
143 | PLPPPPPPPLPP | 0.737 ± 0.011
144 | PLPPPPRPPAPL | 0.688 ± 0.0072
145 | PLPPPPRPPPNP | 0.665 ± 0.01
146 | PLPPPPRPRPPL | 0.721 ± 0.04
147 | PLPPPPTPPVLP | 0.691 ± 0.016
148 | PLPPPRPSPGLL | 0.67 ± 0.1
149 | PLPPPSGLLSRL | 0.902 ± 0.047
150 | PLPPSHPPTGPP | 0.661 ± 0.012
151 | PLPPTFPSPLPP | 0.665 ± 0.008
152 | PLPPTPPPLAPP | 0.644 ± 0.086
153 | PLPRHSSPLPHI | 0.684 ± 0.0089
154 | PLPRPPSPPYPP | 0.65 ± 0.035
155 | PLPRPRHHEPNS | 0.75 ± 0.044
156 | PLPRTPTLPTPE | 0.635 ± 0.036

Row | Sequence | protein stability index
157 | PLPSPPAPNSPQ | 0.6793 ± 0.0053
158 | PLPSSSTRSTSP | 0.714 ± 0.013
159 | PLPYPPTSPTPR | 0.678 ± 0.0078
160 | PLPYSPPLHVYP | 0.691 ± 0.023
161 | PLRAHLYRPSVP | 0.69 ± 0.03
162 | PLRALLPTRCNL | 0.732 ± 0.067
163 | PLRGRRPIFPAP | 0.724 ± 0.088
164 | PLRPPSSPLWHT | 0.6937 ± 0.0037
165 | PLRRSTSPLILL | 0.648 ± 0.033
166 | PLRSLNHSGRPP | 0.641 ± 0.06
167 | PLRSLPRPLSST | 0.65913 ± 0.00011
168 | PLRSPSYPPPPP | 0.6814 ± 0.00091
169 | PLRTLFGDHLLV | 0.6826 ± 0.002
170 | PLSLRLCYLPWY | 0.701 ± 0.0086
171 | PLSPLVPVRTRP | 0.682 ± 0.072
172 | PLSPPLPLPLPL | 0.75 ± 0.037
173 | PLSPPPAPLPSS | 0.747 ± 0.071
174 | PLSPPPPGPPAS | 0.6037 ± 0.0024
175 | PLSPPPPPPLPA | 0.71 ± 0.011
176 | PLSPPPPTLPLP | 0.714 ± 0.036
177 | PLSPPPYPPRPL | 0.721 ± 0.024
178 | PLSPSPPPAFPA | 0.794 ± 0.039
179 | PLSWVLFSFFHA | 0.697 ± 0.062
180 | PLTPPLPPSPPP | 0.711 ± 0.026
181 | PLTTIPSPNSLE | 0.666 ± 0.032
182 | PLTVPLPLALSP | 0.684 ± 0.047

Row | Sequence | protein stability index
183 | PNHLDPPTLHVN | 0.714 ± 0.021
184 | PNKRLKERGDPS | 0.695 ± 0.086
185 | PNSSLLNLPRPP | 0.744 ± 0.041
186 | PPAAHPFAPFPS | 0.71 ± 0.014
187 | PPACPYPFRPLP | 0.668 ± 0.025
188 | PPACSPSPPRSS | 0.723 ± 0.028
189 | PPAHIFHPPPAR | 0.699 ± 0.081
190 | PPALHRPFPPPP | 0.666 ± 0.016
191 | PPALLAPAAPLP | 0.652 ± 0.07
192 | PPALPRFPACTT | 0.714 ± 0.056
193 | PPALSSNPVIPG | 0.626 ± 0.099
194 | PPAPAPPAPPPL | 0.649 ± 0.027
195 | PPAPLPAPRLAL | 0.709 ± 0.036
196 | PPAPPHPPPLSP | 0.695 ± 0.04
197 | PPAPPPASPGLV | 0.7017 ± 0.0009
198 | PPAPPPCTPPPP | 0.69493 ± 0.0002
199 | PPATLIWAWFFR | 0.67 ± 0.022
200 | PPATPPRPPLPS | 0.675 ± 0.057
201 | PPATRSLSAASP | 0.722 ± 0.0095
202 | PPCAPPPSPLAC | 0.684 ± 0.043
